The source of these data is the DeepSol protein solubility set.

A short description of the data set: soluble on expression in E. coli; label from the status in PepcDB or PDB records.
In the case of “MGSDKIHHHHHHMDDHGRSRPTQPTLYVLDTNVLIHDPNALLNFQEHRVAIPMTVLEELDKLKTGKHTIAAECRQAIRLIDQVLGEATPEQVEGGVPIQRGKNGPSGSLSILMSKRAEPITWLPEHLNDNKIINQLVELKSRHSGVRVVLVTKDINMRLKARACGVDAEDYHTDQLIDDVALLSRGYHSLAGSFWDRVSKVETRQDHGRTWHRVQLTDNLPAVHINEFIVDEQGFVGWIKGIQQDELTILDLHQEPLLHQEAWGLRPRDVYQSLALYALLDPDIHLVNLSGAAGSGKTILALAAAIEQTMVSKRYRRIIATRSVQGLDEDIGFLPGTEAEKMEPWLGAITDNLEALHMDDECTHGSVDYILSKVPLQFKSLNYIRGRSFQQSLILIDECQNLTPHQMKTIITRAGSGSKVICLGNLAQIDTPYLSATSSGLTYLTERFKDFPHGVHVTLQGVPRSVLAEYAEAHM”, the “soluble on expression in E. coli” value was “not soluble”.
With “EDFFNAKVQEQIERYQRYHNTAYNLEPDIKFSPGGLRDLHLLYWVALRHSGALTLEAILQSGFIYPQEYQQLQESRAFLFKVRFALHLILKRYDNRLLFDRQIKVSELLGFRGEGNPAVEKMMKCFFQALHRISLISNLLIQHYRENVLSSNQDTVIDQLDDDFQLINQSLCLRNSFVFQEKPARILDLFFYLTQYEHVNIHSDTLRQL”, the “soluble on expression in E. coli” value is given as “not soluble”.
Then “MSLDSPFGPEDDICILHFNDVYNIEEDVNGTGGVARFVEALKSFRSLNPLLLFSGDVFNPSIMSVTTKGRHMVPFLNMMRVHTACFGNHDFDFGVDHLEYLAGSCNFQWILSNVYDAYTGEPLANARTYRLFEWQGRRIGIMGLVEKDWLKTLPTISEEDVIYKDFVEEANRISKILREKDAELIIALTHMRAPNDELLAKGADDIDLILGGHDHEYYGVKEIGNSVVAKSGTDFRDLTMIVIKPGKHCLVCPNSDSKLHLESCRYSSFSLDQPQNIYEERLIPNNKDGGDIYLREGHHHHHH”, with “soluble”.
With “MSTTTAITSTLQRVTKAPEGRRMLRVEARNSQTPIESKPRWIRTAVKTGPEYQDMKKKVSGASLHTVCQEAGCPNIHECWESREATFLIGGANCSRRCDFCQINSAKPEPLDRDEPRRVAESVREMQLNYSTITGVTRDDLEDEGAWLYAEVVRKIHELNPHTGVENLTPDFSGKPDLLQEVFEARPEVFAHNLETVPRIFKRIRPAFRYERSLDVIRQARDFGLVTKSNLILGMGETVDEIRDALVDLHSAGCDIITITQYLRPGPMYHPIDRWVKPEEFIDHADFARELGFGAVMSGPLVRSSYRAGKLYAEALAARGESLPENLAHLATTADGSTAQEANTLLEKYGPSQDTPVVSSKA”, the “soluble on expression in E. coli” value is “not soluble”.
As for “DGDRLRQFLENNKKVLRFWCVWDERTTMYGDRRPYVLHYYLEDDSVEVLEINENNSGRDPFPVFLKRGPLPKVAVKTNTTLNPKFRKDQCYNAGDFRLGLFINVLGRDFYLHDADTFTKQWYKDNLGYTDEE”, the “soluble on expression in E. coli” value is “not soluble”.
Take “MSLAEGNYISRIRAKIGHDPLIMINTFAVLWNEKHDAIFLEQRADIPDGWGFPGGFVEYGESPMDAIVREVKEETNLDVKVKNMFEMISSVNPHNFWGDAQQNLSLGFEIELLDGKLQVDQSETLAAEFVPINPEPKMFVPAAQANMHRILTWEDRPKPWLIDSNIKSHSEGHHHHHH”: the “soluble on expression in E. coli” value is recorded as “soluble”.
With “MVKVYIHDNKVDSDYRAPHNSGTELSLDELAKLGVIYKYCANEEEVNEIARQREYKNRDVVNICEGSFKSEAEFNEKLATFYQEHLHEDEEIRYCLEGAGYFDVRDASTPENWIRCLVESGDLLILPPGIYHRFTLTTSNHIKALRLFKDEPKWQAINRSNQADSLPVRKDYIALINQY” the entry was “soluble”.
Then “MAEREVRSTAYQLNAARFPLYRDLAGFDFASSEINEALVRQLHRCEFMDQANNVVLVGGPGTGKTHITTALGVRAVEHQCKRVRFFSTVEFVNVLEQEGPRAGQIANRLAHSDLVILNELGYLPFSASGGALLFHLLSTLYGRAPASSSPLKLISASASGLP”, with “not soluble”; and “MSLAKGIMLHEVGEQVDQYLLIKSSTKGIASNGKPFLTLMLQDQSGDIEAKLWDAKQSDEVTYAPQTIVKVVGDVHHYRGRTQLKLRNIRPVSEQENVNIDDFLETAPIPKNEMMDTITQYIFEMKNPNIQRITRFLVKKHEAEFMDYPAATKNHHEFVSGLAYHVVSMLNLAKAIADLYPSLDRDLLYAGVILHDLGKVKELSGPVSTSYTVEGNLLGHISIMVTELSKAAEELQIDSEEVLILQHLILSHHGKAEWGSPKPPMVKEAEILHYIDNLDAKMNMMDRALERVKPGEYTERVFALENRSFYKPTFHKEGGSHHHHHH”, with “soluble”.
Then “MTTIVGVRAREVLDSRGFPTVEAEVELEGGARGRAMVPSGASTGTHEALELRDGGKRYLGKGVRRAVENVNERIAPELVGMDALDQEGVDRAMLELDGTPNKANLGANAVLAVSLAVARAAAEALGLPLYRYLGGVQGVTLPVPLMNVINGGKHADNRVDFQEFMLVPAGAGSFAEALRIGAEVFHTLKAVLKEKGYSTNVGDEGGFAPDLRSNEEAVELLLLAIERAGYTPGQEVSLALDPATSELYRDGKYHLEGEGKVLSSEEMVAFWEAWVEKYPIRSIEDGLAEDDWEGWRLLTERLGGKVQLVGDDLFVTNPERLRAGIERGVANAILVKVNQIGTLSETLEAIRLAQRSGYRAVISHRSGETEDSFIADLAVAVNAGQIKTGSLSRSDRLAKYNQLLRIEEELGRAARFLGYAAF”, with “soluble”; and “MSLSRKRKSYSAEFKTRVVLELLGGEETVAQIASKYEITPKSLIDWKKQFLENASLVFDVGSATKAYKDEIEELKTENDALAKKLGKTTIERDWAVGKLKSLGLSNKKDLVTPKLKNLSMARQCEIIDLNRSTLYYEPKPISDNDLKIMKRIDEIYTDISSTYGYRFMHRQLLEDGFSIGVNKVNKLMNTMGIQAIFPKKKRHTSIKNYKHKIYPYLLRELEINRANQVWSGDITYIPIKGGFVYLCAIIDWHSKTILSWKISTTMDTSLVTDVLKEAIEKYDIPVIFNSDQGSQYTSHEHTELLKKHNIQISMNGKGRSIDNIAIERFFRTLKYDEIYINEYSSISDLRFKVSRYINFYNHNRFHSALNYQKPMNVYLEGLKNVAEGHHHHHH”, with “not soluble”; and “MGSDKIHHHHHHMVKNDESQIFTKMRLTLVIPSLYSGGAERVLSIIANYWASKGWKVTLLTFCGNQPPFYDLDSRISYIPLHIARDSSNLIAAVKNNLYRIFKLRLAITASNPDIVISFMSEANVTTLLATRGLNVPVLVSERNNPKIRLTKSSIWVKLRQLTYPFAQRVIVQTQRALNYFPSSLKNRICVIPNPVLLPPNKPCKPQELFNKLPGQKLLIAVGRLESQKGFDLLLQAFANLKDDFSEWQLVILGEGILHLDLTELCHQLQLNGRVYFLGRVKNIYEFLQEADIYVMSSRFEGFPNALCEAMASGLPVISTDCPNGPREIIRDGIDGLLVPNEDVLALTSAIKLLMSDEEKRKNLATNASEIAERFSIDKIMEMWEFVVKDVVES”, with “not soluble”.
As to “GPGSMTQNIIRRIFGNRELPENLSGSEYERYMQENFPKWIDEFEKGGFLEATKLPAIKSERDFLSKLIEHKDEIMVVKYWKHGCIPCLSLAEMYKQVSEQCKKENRRIAWYSVNTKDVSARSLVDYQLVNGTPTVQTFSRMKQVGKEIRAISAEELMRELSLREAALNTES”, the “soluble on expression in E. coli” value is given as “soluble”.
Then “MGSDKIHHHHHHMQLLHTPAAISISFDDPNLISTAGLVPTMALAEDRLTVPTDKGANPGAKITTLIAGMVAGADSIDDIDALRHGGMHRLFDWIYAPSTLGSFLRAFTFGHVRQLDAVASRFLVGLATQAPALVPVDASTSDYVFIDVDDTIIKVHGHQKQGAGFGYSGIRGLNALLATVTTPESAPVVVAQRLRKGSCGSPRGAGRLIADAVATTRRLPGMEDEKILLRADSAFYGHPSISAAIKAGADVSVTVRMTPNVKKAIAQVPDDAWQTIKYTNAIFDEDTGRWISVAEVAEIPFTAFTSRKKTDHIPGLLVVRRIPELNNKDVDQPGLFDLHRFHAVFTTADPGILDTVAADKTHRQHAIIEQVNADVKASALAHMPSGVFTANSAWLVCAVMAFNLTRTAGVIAAGAMARATTATIRRKLVAVPARIARSARRLILHLPRNWRWETQWSRLCDHGRLPP”, with “not soluble”.
With “MCLNFREDNVMKKIMVIFGTRPEAIKMAPLVKEIDHNGNFEANIVITAQHRDMLDSVLSIFDIQADHDLNIMQDQQTLAGLTANALAKLDSIINEEQPDMILVHGDTTTTFVGSLAAFYHQIPVGHVEAGLRTHQKYSPFPEELNRVMVSNIAELNFAPTVIAAKNLLFENKDKERIFITGNTVIDALSTTVQNDFVSTIINKHKGKKVVLLTAHRRENIGEPMHQIFKAVRDLADEYKDVVFIYPMHRNPKVRAIAEKYLSGRNRIELIEPLDAIEFHNFTNQSYLVLTDSGGIQEEAPTFGKPVLVLRNHTERPEGVEAGTSRVIGTDYDNIVRNVKQLIEDDEAYQRMSQANNPYGDGQASRRICEAIEYYFGLRTDKPDEFVPLRHK” the entry was “not soluble”; with “MAYCNPGLESRPNKRNALRRHVVTGIGMKIVIAPDSYKESLSASEVAQAIEKGFREIFPDAQYVSVPVADGGEGTVEAMIAATQGAERHAWVTGPLGEKVNASWGISGDGKTAFIEMAAASGLELVPAEKRDPLVTTSRGTGELILQALESGATNIIIGIGGSATNDGGAGMVQALGAKLCDANGNEIGFGGGSLNTLNDIDISGLDPRLKDCVIRVACDVTNPLVGDNGASRIFGPQKGASEAMIVELDNNLSHYAEVIKKALHVDVKDVPGAGAAGGMGAALMAFLGAELKSGIEIVTTALNLEEHIHDCTLVITGEGRIDSQSIHGKVPIGVANVAKKYHKPVIGIAGSLTDDVGVVHQHGIDAVFSVLTSIGTLDEAFRGAYDNICRASRNIAATLAIGMRNAG”, “soluble”; with “MEARFAELLAAYCLEAQSGETVLVEAETPALPLLPHLKRALLRRGAYPLIRLSYPGEERDFLLFGGRWLEEVPEAELALYQRADKFLRVLSAENPLEAAAVDPALALRRQRAWRLLQEIRLGKRWALTLYPTVGYAVGAGMGTEEFRAYLERALFLDREDPVAAWQELSRFQEGLIRRLSAAKELRILAPGTDLRLSVAGRTWVNSDGRRNMPSGEVFTGPVEDSAEGEVRFNLPAFVGGRRVKGVYLRFARGQVVKARAKAGKAYLQAALATDEGARRLGEVGIGTNFALDRPTGLVLLDEKMGGTVHLALGRSYPEAGGRNESALHWDLVLSLREGRLLLDGTPLLEAGRFL”, “soluble”.
With “MSLDRFVVTYRIVAEDEADAAARAASIALEDTVEIPRDVVPAGYVEDVVLGRVESVTARGGGVWTALIGYHVDAVGRELPQLLNVILGNASILRGVKAVDLAPDAALAERFPGARFGAAGVRRLTGRASGGFVCPVIKPQGSSAETLARLCYLSAVAGADIVKEDHGLANQDAAPFRERIGACAEAVGRANAERRDQGDTTQALYFANLCGPPHQLRDQAYYAKESGAHGILLIPGLHGFDAMFELAQDPDFDLPIMAHPSHLGPYVLSPDHGYGHGMLFGQLMRLAGADISVFPNHGGRFGFSVDECEEIVRACRDPEGLGPAILPSPGGGMSPERLPDMMAQYGEDCVYLLGGSLLRAGDRIGELIAEMRAALSGRDEGHHHHHH” the entry was “soluble”; with “MPVDTKTVLVVRHGTAGRRSRYKGDDRKRPLDKRGRAQAEALVAQLMAFGATTLYAADRVRCHQTIEPLAQELDQLIHNEPLLTEEAYAADHKAARKRLLEIAGRPGNPVICTQGKVIPGLIEWWCERAKVRPETTGNRKGSTWVLSLSDGELVGADYLSPPDEKLEHHHHHH”, “not soluble”.
